Source: publication PMC13038214, “TNFSF13 insufficiency disrupts human colonic epithelial cell growth and associated B cell dynamics” (The Journal of Clinical Investigation, 2026)

T1: FAS ligand (FASL) used as analyte in SPR (human, UniProt P48023 103-281)
T1 construct: FAS ligand (FASL), the protein flowed over immobilised FAS in SPR as positive control; also called rFASL; recombinant human FAS ligand
T1 sequence (looked up): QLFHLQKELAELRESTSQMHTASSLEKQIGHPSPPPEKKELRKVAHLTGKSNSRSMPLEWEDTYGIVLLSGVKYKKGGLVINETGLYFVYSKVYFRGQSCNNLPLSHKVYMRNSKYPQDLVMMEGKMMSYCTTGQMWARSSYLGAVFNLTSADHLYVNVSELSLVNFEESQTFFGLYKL

B1: FAS immobilised for SPR (receptor, human, UniProt P25445 26-173, looked up)
chain: QVTDINSKGLELRKTVTTVETQNLEGLHHDGQFCHKPCPPGERKARDCTVNGDEPDCVPCQEGKEYTDKAHFSSKCRRCRLCDEGHGLEVEINCTRTQNTKCRCKPNFFCNSTVCEHCDPCTKCEHGIIKECTLTSNTKCKEEGSRSN
notes: FAS receptor, the protein immobilised in SPR; also called FAS receptor

How the values were obtained:
FAS immobilised for SPR = target: B1; assay: SPR; FAS immobilised; TNFSF13 or FASL at various concentrations; sensorgrams fitted to a 1:1 kinetic binding model; n = 3 independent experiments; details: both partners purified
[1] = target: T1, FAS ligand (FASL) used as analyte in SPR; assay: as above; details: both partners purified

Row | Binder | Kd (FAS immobilised for SPR) [µM] | Kd [1] [µM]
1 | TNFSF13 used as analyte in SPR (ligand, human, UniProt O75888 105-250, looked up, TNFSF13 (APRIL), the protein flowed over immobilised FAS in SPR; also called TNSF13; APRIL) AVLTQKQKKQHSVLHLVPINATSKDDSDVTEVMWQPALRRGRGLQAQGYGVRIQDAGVYLLYSQVLFQDVTFTMGQVVSREGQGRQETLFRCIRSMPSHPDRAYNSCYSAGVFHLHQGDILSVIIPRARAKLNLSPHGTFLGFVKL | 0.06 | –
2 | B1 | – | 0.00409
